Biological target: Human Factor B (human) (UniProt P00751)
Experiment: cell-based or functional assay

Human Factor B (human), sequence (P00751 26-764 limits assumed): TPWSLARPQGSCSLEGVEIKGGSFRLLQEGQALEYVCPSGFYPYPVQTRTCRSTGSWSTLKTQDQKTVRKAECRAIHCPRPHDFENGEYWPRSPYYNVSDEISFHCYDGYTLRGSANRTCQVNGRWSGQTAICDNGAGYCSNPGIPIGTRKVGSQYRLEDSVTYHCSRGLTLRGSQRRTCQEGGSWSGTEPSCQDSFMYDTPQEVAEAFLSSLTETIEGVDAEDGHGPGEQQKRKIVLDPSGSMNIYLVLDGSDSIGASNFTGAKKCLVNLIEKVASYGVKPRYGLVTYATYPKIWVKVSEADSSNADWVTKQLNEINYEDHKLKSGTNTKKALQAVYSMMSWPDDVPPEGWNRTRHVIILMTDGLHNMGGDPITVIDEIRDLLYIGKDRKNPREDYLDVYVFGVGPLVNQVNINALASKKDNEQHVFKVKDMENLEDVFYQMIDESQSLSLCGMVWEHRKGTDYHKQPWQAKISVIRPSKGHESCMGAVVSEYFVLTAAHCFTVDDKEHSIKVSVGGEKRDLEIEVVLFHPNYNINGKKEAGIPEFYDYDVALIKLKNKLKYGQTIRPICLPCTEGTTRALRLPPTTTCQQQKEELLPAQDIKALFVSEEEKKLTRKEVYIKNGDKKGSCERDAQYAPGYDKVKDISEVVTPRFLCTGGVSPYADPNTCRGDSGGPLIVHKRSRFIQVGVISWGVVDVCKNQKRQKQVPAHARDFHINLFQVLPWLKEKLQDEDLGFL

Row | fB Cleavage EC50 [nM] | fB Cleavage, 80% plasma EC50 [nM] | EC50 (Factor B ELISA after digestion) [nM] | Binder
1 | 203 | 4130 |  | chymase C22S/K40M/F41K/F173Y/D175R/S218E/A226R (enzyme) IIGGTESKPHSRPYMAYLEIVTSNGPSMKCGGFLIRRNFVLTAAHCAGRSITVTLGAHNITEEEDTWQKLEVIKQFRHPKYNTSTLHHDIMLLKLKEKASLTLAVGTLPFPSQFNFVPPGRMCRVAGWGRTGVLKPGSDTLQEVKLRLMDPQACSHYRRFDHNLQLCVGNPRKTKSAFKGDSGGPLLCAGVAQGIVSYGREDAKPPRVFTRISHYRPWINQILQAN
2 | 71.8 |  |  | chymase C22S/P38Q/K40A/F41R/L99H/V138I/F173Y/D175N/A190S/V213A/S218V/A226R (enzyme) IIGGTESKPHSRPYMAYLEIVTSNGQSARCGGFLIRRNFVLTAAHCAGRSITVTLGAHNITEEEDTWQKLEVIKQFRHPKYNTSTHHHDIMLLKLKEKASLTLAVGTLPFPSQFNFVPPGRMCRIAGWGRTGVLKPGSDTLQEVKLRLMDPQACSHYRNFDHNLQLCVGNPRKTKSSFKGDSGGPLLCAGVAQGIASYGRVDAKPPRVFTRISHYRPWINQILQAN
3 | 932 |  |  | chymase C22S/P38Q/K40M/F41R/D175N/V213Q/S218V/A226R/F228A (enzyme) IIGGTESKPHSRPYMAYLEIVTSNGQSMRCGGFLIRRNFVLTAAHCAGRSITVTLGAHNITEEEDTWQKLEVIKQFRHPKYNTSTLHHDIMLLKLKEKASLTLAVGTLPFPSQFNFVPPGRMCRVAGWGRTGVLKPGSDTLQEVKLRLMDPQACSHFRNFDHNLQLCVGNPRKTKSAFKGDSGGPLLCAGVAQGIQSYGRVDAKPPRVATRISHYRPWINQILQAN
4 | 36.3 |  | 42.5 | chymase C22S/P38Q/K40L/F41R/V138I/F173Y/D175N/A190S/V213A/S218V/A226R (enzyme) IIGGTESKPHSRPYMAYLEIVTSNGQSLRCGGFLIRRNFVLTAAHCAGRSITVTLGAHNITEEEDTWQKLEVIKQFRHPKYNTSTLHHDIMLLKLKEKASLTLAVGTLPFPSQFNFVPPGRMCRIAGWGRTGVLKPGSDTLQEVKLRLMDPQACSHYRNFDHNLQLCVGNPRKTKSSFKGDSGGPLLCAGVAQGIASYGRVDAKPPRVFTRISHYRPWINQILQAN
5 | 216 | 4130 |  | chymase C22S/K40M/F41K/L99N/F173Y/D175R/S218T/A226R (enzyme) IIGGTESKPHSRPYMAYLEIVTSNGPSMKCGGFLIRRNFVLTAAHCAGRSITVTLGAHNITEEEDTWQKLEVIKQFRHPKYNTSTNHHDIMLLKLKEKASLTLAVGTLPFPSQFNFVPPGRMCRVAGWGRTGVLKPGSDTLQEVKLRLMDPQACSHYRRFDHNLQLCVGNPRKTKSAFKGDSGGPLLCAGVAQGIVSYGRTDAKPPRVFTRISHYRPWINQILQAN
6 | 142 |  |  | chymase C22S/P38Q/K40A/F41K/L99H/V138I/D175S/A190S/V213A/S218V/A226R (enzyme) IIGGTESKPHSRPYMAYLEIVTSNGQSAKCGGFLIRRNFVLTAAHCAGRSITVTLGAHNITEEEDTWQKLEVIKQFRHPKYNTSTHHHDIMLLKLKEKASLTLAVGTLPFPSQFNFVPPGRMCRIAGWGRTGVLKPGSDTLQEVKLRLMDPQACSHFRSFDHNLQLCVGNPRKTKSSFKGDSGGPLLCAGVAQGIASYGRVDAKPPRVFTRISHYRPWINQILQAN
7 | 110 | 5670 |  | chymase C22S/K40L/F41K/L99Q/F173Y/D175N/S218V/A226R (enzyme) IIGGTESKPHSRPYMAYLEIVTSNGPSLKCGGFLIRRNFVLTAAHCAGRSITVTLGAHNITEEEDTWQKLEVIKQFRHPKYNTSTQHHDIMLLKLKEKASLTLAVGTLPFPSQFNFVPPGRMCRVAGWGRTGVLKPGSDTLQEVKLRLMDPQACSHYRNFDHNLQLCVGNPRKTKSAFKGDSGGPLLCAGVAQGIVSYGRVDAKPPRVFTRISHYRPWINQILQAN
8 | 84 | 5560 |  | chymase C22S/K40L/F41R/L99H/F173Y/D175Y/S218I/A226R (enzyme) IIGGTESKPHSRPYMAYLEIVTSNGPSLRCGGFLIRRNFVLTAAHCAGRSITVTLGAHNITEEEDTWQKLEVIKQFRHPKYNTSTHHHDIMLLKLKEKASLTLAVGTLPFPSQFNFVPPGRMCRVAGWGRTGVLKPGSDTLQEVKLRLMDPQACSHYRYFDHNLQLCVGNPRKTKSAFKGDSGGPLLCAGVAQGIVSYGRIDAKPPRVFTRISHYRPWINQILQAN
9 | 28.1 |  | 30.2 | chymase C22S/P38Q/K40M/F41R/V138I/F173Y/D175R/A190S/V213A/S218V/A226R (enzyme) IIGGTESKPHSRPYMAYLEIVTSNGQSMRCGGFLIRRNFVLTAAHCAGRSITVTLGAHNITEEEDTWQKLEVIKQFRHPKYNTSTLHHDIMLLKLKEKASLTLAVGTLPFPSQFNFVPPGRMCRIAGWGRTGVLKPGSDTLQEVKLRLMDPQACSHYRRFDHNLQLCVGNPRKTKSSFKGDSGGPLLCAGVAQGIASYGRVDAKPPRVFTRISHYRPWINQILQAN
10 | 333 | 8620 |  | chymase C22S/K40L/F41R/L99G/F173Y/D175R/S218V/A226R (enzyme) IIGGTESKPHSRPYMAYLEIVTSNGPSLRCGGFLIRRNFVLTAAHCAGRSITVTLGAHNITEEEDTWQKLEVIKQFRHPKYNTSTGHHDIMLLKLKEKASLTLAVGTLPFPSQFNFVPPGRMCRVAGWGRTGVLKPGSDTLQEVKLRLMDPQACSHYRRFDHNLQLCVGNPRKTKSAFKGDSGGPLLCAGVAQGIVSYGRVDAKPPRVFTRISHYRPWINQILQAN
11 | 1350 |  |  | chymase C22S/P38Q/V138I/A190S/V213A/A226R (enzyme) IIGGTESKPHSRPYMAYLEIVTSNGQSKFCGGFLIRRNFVLTAAHCAGRSITVTLGAHNITEEEDTWQKLEVIKQFRHPKYNTSTLHHDIMLLKLKEKASLTLAVGTLPFPSQFNFVPPGRMCRIAGWGRTGVLKPGSDTLQEVKLRLMDPQACSHFRDFDHNLQLCVGNPRKTKSSFKGDSGGPLLCAGVAQGIASYGRSDAKPPRVFTRISHYRPWINQILQAN
12 | 788 |  |  | chymase C22S/P38Q/K40M/F41R/L99M/F173Y/D175N/V213Q/S218V/A226R/F228A (enzyme) IIGGTESKPHSRPYMAYLEIVTSNGQSMRCGGFLIRRNFVLTAAHCAGRSITVTLGAHNITEEEDTWQKLEVIKQFRHPKYNTSTMHHDIMLLKLKEKASLTLAVGTLPFPSQFNFVPPGRMCRVAGWGRTGVLKPGSDTLQEVKLRLMDPQACSHYRNFDHNLQLCVGNPRKTKSAFKGDSGGPLLCAGVAQGIQSYGRVDAKPPRVATRISHYRPWINQILQAN
13 | 6210 |  |  | chymase C22S/P38Q/V213Q/A226R/F228A (enzyme) IIGGTESKPHSRPYMAYLEIVTSNGQSKFCGGFLIRRNFVLTAAHCAGRSITVTLGAHNITEEEDTWQKLEVIKQFRHPKYNTSTLHHDIMLLKLKEKASLTLAVGTLPFPSQFNFVPPGRMCRVAGWGRTGVLKPGSDTLQEVKLRLMDPQACSHFRDFDHNLQLCVGNPRKTKSAFKGDSGGPLLCAGVAQGIQSYGRSDAKPPRVATRISHYRPWINQILQAN
14 | 213 | 4480 |  | chymase C22S/K40M/F41R/L99Q/F173Y/D175R/S218I/A226R (enzyme) IIGGTESKPHSRPYMAYLEIVTSNGPSMRCGGFLIRRNFVLTAAHCAGRSITVTLGAHNITEEEDTWQKLEVIKQFRHPKYNTSTQHHDIMLLKLKEKASLTLAVGTLPFPSQFNFVPPGRMCRVAGWGRTGVLKPGSDTLQEVKLRLMDPQACSHYRRFDHNLQLCVGNPRKTKSAFKGDSGGPLLCAGVAQGIVSYGRIDAKPPRVFTRISHYRPWINQILQAN
15 | 553 |  |  | chymase C22S/P38Q/K40A/F41R/L99H/D175N/V213Q/S218I/A226R/F228A (enzyme) IIGGTESKPHSRPYMAYLEIVTSNGQSARCGGFLIRRNFVLTAAHCAGRSITVTLGAHNITEEEDTWQKLEVIKQFRHPKYNTSTHHHDIMLLKLKEKASLTLAVGTLPFPSQFNFVPPGRMCRVAGWGRTGVLKPGSDTLQEVKLRLMDPQACSHFRNFDHNLQLCVGNPRKTKSAFKGDSGGPLLCAGVAQGIQSYGRIDAKPPRVATRISHYRPWINQILQAN
16 | 92.1 |  |  | chymase C22S/P38Q/K40M/F41R/L99N/V138I/F173Y/D175T/A190S/V213A/S218V/A226R (enzyme) IIGGTESKPHSRPYMAYLEIVTSNGQSMRCGGFLIRRNFVLTAAHCAGRSITVTLGAHNITEEEDTWQKLEVIKQFRHPKYNTSTNHHDIMLLKLKEKASLTLAVGTLPFPSQFNFVPPGRMCRIAGWGRTGVLKPGSDTLQEVKLRLMDPQACSHYRTFDHNLQLCVGNPRKTKSSFKGDSGGPLLCAGVAQGIASYGRVDAKPPRVFTRISHYRPWINQILQAN
17 | 60.3 |  |  | chymase C22S/P38Q/K40L/F41R/L99H/V138I/F173Y/D175S/A190S/V213A/S218I/A226R (enzyme) IIGGTESKPHSRPYMAYLEIVTSNGQSLRCGGFLIRRNFVLTAAHCAGRSITVTLGAHNITEEEDTWQKLEVIKQFRHPKYNTSTHHHDIMLLKLKEKASLTLAVGTLPFPSQFNFVPPGRMCRIAGWGRTGVLKPGSDTLQEVKLRLMDPQACSHYRSFDHNLQLCVGNPRKTKSSFKGDSGGPLLCAGVAQGIASYGRIDAKPPRVFTRISHYRPWINQILQAN
18 | 769 |  |  | chymase C22S/P38Q/K40A/F41R/L99H/F173Y/D175Y/V213Q/S218V/A226R/F228A (enzyme) IIGGTESKPHSRPYMAYLEIVTSNGQSARCGGFLIRRNFVLTAAHCAGRSITVTLGAHNITEEEDTWQKLEVIKQFRHPKYNTSTHHHDIMLLKLKEKASLTLAVGTLPFPSQFNFVPPGRMCRVAGWGRTGVLKPGSDTLQEVKLRLMDPQACSHYRYFDHNLQLCVGNPRKTKSAFKGDSGGPLLCAGVAQGIQSYGRVDAKPPRVATRISHYRPWINQILQAN
19 | 65.3 |  |  | chymase C22S/P38Q/K40L/F41R/L99N/V138I/F173Y/D175N/A190S/V213A/S218V/A226R (enzyme) IIGGTESKPHSRPYMAYLEIVTSNGQSLRCGGFLIRRNFVLTAAHCAGRSITVTLGAHNITEEEDTWQKLEVIKQFRHPKYNTSTNHHDIMLLKLKEKASLTLAVGTLPFPSQFNFVPPGRMCRIAGWGRTGVLKPGSDTLQEVKLRLMDPQACSHYRNFDHNLQLCVGNPRKTKSSFKGDSGGPLLCAGVAQGIASYGRVDAKPPRVFTRISHYRPWINQILQAN
20 | 235 | 4070 |  | chymase C22S/K40M/F41R/L99Q/F173Y/D175R/S218V/A226R (enzyme) IIGGTESKPHSRPYMAYLEIVTSNGPSMRCGGFLIRRNFVLTAAHCAGRSITVTLGAHNITEEEDTWQKLEVIKQFRHPKYNTSTQHHDIMLLKLKEKASLTLAVGTLPFPSQFNFVPPGRMCRVAGWGRTGVLKPGSDTLQEVKLRLMDPQACSHYRRFDHNLQLCVGNPRKTKSAFKGDSGGPLLCAGVAQGIVSYGRVDAKPPRVFTRISHYRPWINQILQAN
21 | 101 | 4620 |  | chymase C22S/K40L/F41K/L99H/F173Y/D175S/S218I/A226R (enzyme) IIGGTESKPHSRPYMAYLEIVTSNGPSLKCGGFLIRRNFVLTAAHCAGRSITVTLGAHNITEEEDTWQKLEVIKQFRHPKYNTSTHHHDIMLLKLKEKASLTLAVGTLPFPSQFNFVPPGRMCRVAGWGRTGVLKPGSDTLQEVKLRLMDPQACSHYRSFDHNLQLCVGNPRKTKSAFKGDSGGPLLCAGVAQGIVSYGRIDAKPPRVFTRISHYRPWINQILQAN

Reference: patent US20240117334A1, “FACTOR B PROTEASES” (Vertex Pharmaceuticals Incorporated, priority 2021, published 2024)
